Drawing on a protein production outcome set (Wang et al. 2014), this text covers protein production for 20 sequences.

A short description of the data set: label from the status in PepcDB records.
Regarding “MRIVIVGGSKFGVATAEQLIDKGHEVVLIDKNREKLEALTDRLDCGMIQGDGSSPKVLREAYAEENDVLVALTNASDDNILTALVARSVGFGRVIPQIVEAELLDVCVELDLKDTITPHVTVARSICRALEEDTELARDTNLTGDLRLLRLSVTSQLSGCSLSELDLPDECRAVAIVHEDREKFADPDAVVSEGEDILFAVHEDRVADLKALFATS”, the protein production entry is reported as “failed”.

Consider “MRIVSRDRWFETRHFYNGISLIHEPYVRPFYRCNMWHVQGRERDVLVDSGSGLVSLCEQLPWLTERPLLAVASHTHFDHIAGHHEFAERLAHPAEAEILAAPDGDNTLARAYVGDEMFEAHPECPLCYAEYRVRAAPATRLIDEGDVLDLGDRVLQVLHTPGHSPGGISLWEAATQTLFSGDIVYDGPLVEDAYHSNLDDYASSLARLRELPVRTVHGGHFASFSGERLREMIVAWFRNHDR”, for which the protein production entry was “failed”. Regarding “MRKARGKAAKGGRAVTGDPIGDAAVLSALFANSPQGLFVFDSEQKVTRYNPAGRGVRGLPEEDVVGQGIADFVPGFEAVELQGLIDEVLATGEALRGRLVRGRAPSGPHRTLAVEVSLFPLRDLGDGKPGLVGVVEDVTE”, the protein production result is “failed”. In the case of “MRKGQETRERVVAQAAALFNVSGYAGTAISDIMAATGLEKGGIYRHFESKEQLALAAFDYAAEKVRERFAVGLAGHKHTVDTIIAFLDVFRSYAERPPLVGGCPILNTAIESDDTNPMLRERVRAVIDEWRETIRTLVQTGIARGEIRPEVDADRLALLIIATMEGAVMLARILETATPLEHAYTHLATYITQQVRLA” it was “not failed”; in that of “MRKLLSVIVSLMTAMAFAQQPVELPLWPDGAPNSNGLTGGEKEVSPHRLSNVTAPTITVYRAPQPNGMAVIMCPGGGYSRLAMDHEGHDMASWFCGQGITYVVLKYRMPNGHCEVPLSDAERAIRIVREHAGEWNIHPRKIGIMGASAGGHLASTLATHYSAASRPDFQILLYPVVTMTQSTHGGSRKELLGGNPTAEQEVLFSNELQVTSDTPQAFIVLSSDDGAVPPSNGVNYYLALQKNNVPASLHVYPTGGHGWGFRDNFKYKQQWTQELEKWLREGVVFPKETAPMLRIGKTYLGTKYVANTLDQGTEEKLVILPQTVDCLTFVEYTLAQAMGSSFADNLQKIRYRDGVIDGYTSRLHYTSDWIENGVRQGFLEDVTAQNSTQTTKLSLSYMSTHPQKYRQLADSPENVKRMAEHEKALSGKKVHWLPKGKLPDAGLPWIMDGDIIAITTNLPGLDVAHVGMAEYINGKLHLLHASSTLGKVVVSEEPLSQMLRNNKSWSGIRVVRMSHP”, “failed”.

Take “MRKLNNHDVHKRYQDRLEEDVEFTINYELPLSCLWSTIKDFSSDFEEKTEAFFILFKELLRRGHLKLQRDGQIIGHTPEEWEQIFREVWPEYEIEPNPLPGYAPFDIGMWLTVEAPAYAVWIDPEDGSEYWAG”: the protein production entry was “not failed”.

With “MRKMTGEEFDPLVSFFDGMAQASWLRPVHDRLKKGTGSWANRAVLDVGCGTGRLLARGVHEAAHLAGVDLSKQMVLATEERLHEHKQCGRLTVVQGDAYDLPFADESFDVCLSTCVMFLLPEPERGMKEMIRVLNGAGVIGMLNPTNKMNHAAAKAYCKKSGITGFEEKTLLQWSNVSTRRHRYTAEQLTHFFKQHGAWVVTHELVLDGLAVVTVASWNKLEHHHHHH”, the protein production result is “not failed”. For the sequence “MRKNEYVNLPVICLVGPTASGKSGLAVRVCRRLYVDEHPAEIINTDSMVVYRGMDIGTATPTLREQRTVVHHLVSILDVTVPSSLVLMQTLARDAVEDCLSRGVIPVLVGGSALYTKAIIDEMSIPPTDPEVRARWQEKLDAEGPRVLHDELARRDPKAAESILPGNGRRIVRALEVIDLTGSFTATIPDGTLHWPKTVQMGLELSRKDIDQRIADRVDQMWAYGFVDEVRSLANVGLREGLTASRALGYRQVLEYLNGDYDEDEARRRTIIGTRRFARKQLMWYRRDDRIEWFNALAPDLDDRVVARVLTALTTDEED”, the protein production result is recorded as “failed”. In the case of “MRKVLSFSAFLIIGLLLSQYLPLLAGEGYATVKIVSNILLYICLSFIMINVGREFEVDKTRWRSYAGDYFIAMATAAMPWFLIAIYYVFVLLPPEFWNSWEAWKENLLLSRFAAPTSAGILFTMLAAIGLKSSWIYKKIQVLAIFDDLDTILLMIPLQIMMIGLRWQLIVVVFIVFLLLSLGWKQLGRYNWRQDWKAIMGYSVLVFVATQAVYYFSKQLYGEEGSIHIEVLLPAFVLGMIMKHKEIDTPVEHKVSTGVSFLFMFLVGMSMPHFIGVNFAETHAGTHSVTGSQEMMSWGMIALHVLIVSLLSNIGKLFPVFFYRDRKFSERLALSIGMFTRGEVGAGVIFIALGYNLGGPALVISVLTIVLNLILTGIFVLWVKKLALRSYTT” it was “failed”; in that of “MRKVRPEELPALLEEGVLVVDVRPADRRSTPLPFAAEWVPLEKIQKGEHGLPRRPLLLVCEKGLLSQVAALYLEAEGYEAMSLEGGLQALTQGK”, “not failed”; in that of “MRLAVLADIHGNADALEAVRADLALQSPDLVVNLGDCLSGPLEVERTADLLMEANWPAVRGNHDRWLVEPEGGTVWETDARPRLSAAQRDWLAALPATRVEAGAFLCHATPGSDLIYWLHHVTPEGHVAPSPLERISRFADGITERLILCGHTHLARSVRLPDGRLVVNPGSVGCPGYEDDAPVPHRVESGTPAACYAILDSKGGDWRVTFRQIPYDHDRAARLAGRYGRPDWESVLATGWLPAQKGQGAL”, “failed”. In the case of “MRLDLSAKFRQVLGLAKDHASIGRAIVQNYNEKAFFDIEVAVVRATSHDDCPVDDKTMHEILFLVSNTPGSIPFLAEQISRRLAKTRDCLVAGKTLLLFHRLLRGSSRSIEQQLHIAHTSGHLQIGCSWFMMSLDSRSFVFLQNYVAYLQERVGWIINQAGKLEPVMSGGTKFSRYKEKSMDLVFHILPKCQEFIAQVLKCSPVDAWPIDNLVQAATGNILKESFQVYMTYSDGMTALVSMLFDLSRPARDLACGMLRKASQQIQDLRILYDKCRGFAGMKSLDYPSVQAISMDHIVALEECSSYGGKRGFSLSTNLRDAITCNELKQEQHSASFSSTSPFSLPVETKISMVWVVFDNEDGEESDKQTEKAYER”, the protein production entry was “failed”.

Take “MRLEKQLIKKMYYETFLMENETKPTLDVLGQAYVNEEKNEISDGSYIRFAQGEFYYRHQDFEAAIFKWEKVSNELAPWAQKNIADAYFELNQLSFAENIYTSITTDNKILMTEIRLQLLSLYIEQNNFDSAFGVIKEAVSLNPDYPNVTKIARSFYEEQQDFDSAVELAVNELIRIESYPWFEVLKGYIDKGFTKHISPDYFYDALATLNNVDQVQFTQMVSSLWNSYKNEKNYLLWLNTINEFFLHIEIHSSDIWNKVSALYEETYFALIQGQYTLRQLNDIIPNLLANWLKVVNPSYAVFPSAAVLAWDEIFPSKIDSANIEHAENLLSHSINHVNGLEYSLHLFESITQWAQKQNIEIGHRFKWLVDELADLRTNRILVTGTSGNGKTTFINSILGENILEKSISNVVVLKNDAHIEINAITDSAITTTEDVSDYHNMMSQHHQTYRDRACVEFKLPCRFLNENKLTFVVTPGFNRNNDTRDEIFEYLNSVDELLFVLNADSPFTDKERDILLSIQEHTPNLQIHFLLNKIDNIYSEAEVKRVLHDTATRINTYFPYARIFPYSSLYTSSQQLNDLTEFIHFNFNHKNIDAERTEKLLFFIRKTITYLLDKRVEKENNLVDAINWNEDMLVKLNGSINNLTTFEREKIHFITQSYRSMKTEITNDLTENIPKILKSCSNLISEESDFGHMDTELNKAMNERVHKYLEQTVLPNLALSMQNWIATSNNELLQSQTYLEELSEGLNSLFGENRIQLECDFKVLDDWRRDTDRMTTRIQMDEVNILRRFTPAQFLLKSAGKLFGVLPKNKSMLYNKYKQYVENEDYTEVTASIMKKFFLQFELFENTQERDINIFFRNPFNSLKQAVENTHLEIQEKQEILHKMKSNPEIYHDSIMLFELRLRQCEVILNIGNDNTYTDVALETSVE”: the protein production result is listed as “failed”. “MRLFFEFTLCAALGLLVSGVILIFLLFFGKFGLIEYWIASGKPLAHAMLVLMPDGFWEGLSGIEGAAGNPHVRSFLELCMGLGQSALLLGLLLFRLVCWK”: the protein production result was “failed”. “MRLFIMEFKHLMFSKTFLFYCLLIIIFTVLNCQQVLKHPINSDVYQPQNMTMYSTDKNLIMSNEIKELKNEVHQNNFKTYQFGFLKQKKLNDQQISKIKKLISKMEKTNNFHQFKNYSNSVSHVVGWGSQYSKNNISLFGIKNMSKSKYVKEKNIIKNKEYYYGAYSRYFSDIMGVVLGILPFFLGAQMILQDKKSNAIKTIHSKSISSYQLISTRVFTILVLAYLPVLLVSIYFVTCLSMIHQISMFSLFIFYKILILWTLPTLIFTIAMGFFVTIILNSYLGVMIQIVIWFINLNIGSRAIEGCYGSLLIPRHNTLFNAVFFYNHFNQILANRFTYFGLGLLLILLSTYIFDLKRREVGFNAKIFTNRYQN”: the protein production entry was “failed”. As for “MRLFIVQAMFTEYRPTHGYDEYFCREQSAPRADLEPLLSSLGAMGLAELNRSHASASNLLRRLGATFRLNGSGLHGGERILPFDPLPRLIHRQEWSVLERGLVQRLEAIDQFLADVYGPQRILNDGVIPREDVESSQGWRPQMQDIAVPLNRWCHISGLDLIRDGDGTWRVLEDNLRCPSGVAYFLENRRVMKRLFPSLFQGRTVQPIDDYPSHLLRTLQDLAPWSDAPRVVLLTPGVFNSAYFEHSYLAQQMGIALVEGRDLICEDGRVWMRSTAGREPVDVIYRRIDDDFLDPNVFRRDSMLGVPGLIDAMRSGRVAIANAPGSGVADDKLIYAYVPAMIRYYLNEEPIIDNVPTYLCSRDDDRRYVLEHLNELVVKSVAEAGGYGMLIGPHASSEEIESFAVKIKAHPRNFIAQPTLQLSTVPSLSEGELYPCHVDLRPYVLRGKSDWVSPGGLTRVALKRGSLVVNSSQGGGCKDTWVVSDSAVTAGNQELVPC”, the protein production result is listed as “failed”. On to “MRLGRIASPDGVAFVSIEGELDNPAEMIAREIAEHPFGTPNFTGRSWPLADVRLLAPILASKVVCVGKNYADHIAEMGEATGPVPADPVIFLKPNTAIIGPNVPIRLPANASPVHFEGELAVVIGRPCKDVSAAQAAENILGYTIGNDVSARDQQRSDGQWTRAKGHDTFCPVGPWIVTDLNPLDPGDLELRTEVNGEVKQRSRTSLLIHDIGSIVEWISAVMTLLPGDLILTGTPAGVGPIEDGDTVSITIEGIGTLTNPVVRKGKS”, for which the protein production result is given as “failed”. For “MRLIERYLFRQLLGPTLLATAALVALALLARSLSEFDVLVEQRQSALVFLKIILLALPQLLGIMMPLALFVAALVALNRLHTEQEIVVCFAGGMSRWRVISPAMRLAVIAALISLISGLWLQPWSARQIRETAFQIKTDVAATLVQPGQFTEPGPGLTVYAQSIDRDNKIQNLFIHQELPNGAASTYSSREAEIATRKGEPVLIMRHGSNQQFSRDGVLQYTSFDEYTFDLSSLFHSDELLHYKIADRYPHELFFPDLTQEWEQRNKDKLLAEGHSRFAGPLYNIALMSMALAAVLGGSFSRMGYGKRIAAVGAAAAIVRIVGFGVQAACEDDPWLNVLQYIVPLAATAWAMSQIFRQRVSPRRKTKPATPAPAFSGAA”, the protein production entry is listed as “failed”. “MRLITHNMLSCNIKGVTSGFPLRIEAGNVIEKEVDFNPDFIRHMFAKIEWKALVEGARSMGYAELPEESPDAAVLKSDEPFLKKLHHALLELHLEEGALVCPETGRKFPVNKGIPNMLLHEDEV”: the protein production result was “failed”.

For “MRLNGDVGWLWDWLAAAGLEPRALGEAAVLCALKRRLDAAGCTAAAYPARLAADAEERARLLDAVLVPETWFFREPPAFEALAESAARHRLQRRSVPFHVLSLGCSTGEEPWSIVIALREAGMRKGDFRVEALDISARAIEAARAGIYGGRSFRSPGDGTWRSRYFDELGDGRYRVKDGLRGDVEYRVAHLGDPGWGGGRRYQAVFCRNVLIYLRAELRARIMDQCRDALDPGGLLVLGHADGIGGPDRGFRRHGVAGAFSWIRRDAAEAEPPPARSSRPLAAKAVRRDAPGEAKPSGPDLLSGGRETGRAAPFDEGAVLGTARALADGGNYQAAERLCQSHLASHPHDPEVHALLGIVMSAANRDDEALRYFRQALYLAPSHNESLLHLAALYERRGDEERARHFRNRSAAAEGEP”, the protein production result is reported as “failed”.
